Assay results: paper PMC6204840

How the values were obtained:
[1] = target: soluble human neonatal Fc receptor (FcRn alpha chain extracellular domain + beta2-microglobulin) (UniProt P55899+P61769); assay: SPR; settings: pH 6.0, PBS (concentration not stated), adjusted to pH 6.0 or pH 7.4
[2] = target: recombinant cynomolgus monkey FcRn (cynomolgus monkey) (UniProt Q8SPV9); assay: BLI
[3] = target: motavizumab IgG1 with Fc variant DF213 (human); assay: SPR
[4] = target: motavizumab IgG1 with Fc variant DF197 (human); assay: SPR
[5] = target: motavizumab IgG1 with Fc variant DF215 (human); assay: SPR
[6] = target: motavizumab IgG1 with Fc variant DF183 (human); assay: SPR
[7] = target: motavizumab IgG1 with wild type Fc (human); assay: SPR
[8] = target: Fcγ receptor IIIa (V176 or F176, not told which) (UniProt P08637)
[9] = target: Fcγ receptor IIIa (V176 or F176, not told which) (UniProt P08637); assay: ELISA

Chain of UniProt P08637 (P08637 17-208): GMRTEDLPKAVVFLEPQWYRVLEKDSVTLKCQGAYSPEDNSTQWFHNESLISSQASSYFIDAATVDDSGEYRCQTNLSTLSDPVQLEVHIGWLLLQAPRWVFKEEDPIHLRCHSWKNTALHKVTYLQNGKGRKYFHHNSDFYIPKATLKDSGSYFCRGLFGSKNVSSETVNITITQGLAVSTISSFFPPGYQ
Chain of UniProt Q8SPV9 (Q8SPV9 24-297, chain 1 of 2): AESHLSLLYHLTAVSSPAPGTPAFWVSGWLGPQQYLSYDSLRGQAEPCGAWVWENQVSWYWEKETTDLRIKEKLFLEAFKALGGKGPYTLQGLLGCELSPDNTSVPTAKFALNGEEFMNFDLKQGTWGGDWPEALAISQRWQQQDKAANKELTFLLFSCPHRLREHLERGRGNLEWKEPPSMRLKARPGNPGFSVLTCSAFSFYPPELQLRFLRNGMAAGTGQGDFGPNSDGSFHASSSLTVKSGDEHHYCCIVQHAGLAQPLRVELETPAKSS
Chain of UniProt Q8SPV9 (Q8SPW0 21-119, chain 2 of 2, further chain): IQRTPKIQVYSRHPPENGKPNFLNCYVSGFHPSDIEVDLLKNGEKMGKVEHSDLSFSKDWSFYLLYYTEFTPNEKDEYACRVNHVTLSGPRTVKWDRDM

Work on “motavizumab IgG1 DF183 T256D;Q311V;A378V” yielded a ka [1] of 1.93e+06 M⁻¹ s⁻¹ and a kd [1] of 0.0402 s⁻¹.

“motavizumab IgG1 DF197 H285N;T307Q;N315D” gave a ka [1] of 1.59e+06 M⁻¹ s⁻¹ and a kd [1] of 0.0328 s⁻¹.

For “motavizumab IgG1 DF213 H285D;T307Q;A378V”, the ka [1] was 800000 M⁻¹ s⁻¹ and the kd [1] was 0.0192 s⁻¹.

Work on “motavizumab IgG1 DF215 T307Q;Q311V;A378V” yielded a ka [1] of 1.37e+06 M⁻¹ s⁻¹ and a kd [1] of 0.027 s⁻¹.

With “motavizumab IgG1 DF228 T256D;H286D (as printed; probably N286D);T307R;Q311V;A378V” the ka [1] was 1.39e+06 M⁻¹ s⁻¹ and the kd [1] was 0.0142 s⁻¹.

In the case of “motavizumab with wild type human IgG1 Fc (antibody)”, the Kd [2] is reported as 13.7 nM.

Substance “recombinant human FcRn heterodimer (α-FcRn extracellular domain with β2M) (from UniProt P55899 24-297; P61769 21-119) (complex)” has a Kd [3] of 24 nM, a Kd [4] of 21 nM and a Kd [5] of 19 nM. For the same substance, the Kd [6] was 21 nM and the Kd [7] was 825 nM.

“rituximab IgG1 with Fc variant DF183 (antibody)” showed an ADCC EC50 (ADCC Reporter Bioassay, rituximab Fab, WIL2-S cells) [8] of 3.92 ng/mL and an EC50 [9] of 87.2 nM.

Work on “rituximab IgG1 with Fc variant DF197 (antibody)” yielded an ADCC EC50 (ADCC Reporter Bioassay, rituximab Fab, WIL2-S cells) [8] of 8.3 ng/mL and an EC50 [9] of 97.4 nM.

With “rituximab IgG1 with Fc variant DF213 (antibody)” the ADCC EC50 (ADCC Reporter Bioassay, rituximab Fab, WIL2-S cells) [8] was 4.01 ng/mL and the EC50 [9] was 139 nM.

“rituximab IgG1 with Fc variant DF215 (antibody)” showed an ADCC EC50 (ADCC Reporter Bioassay, rituximab Fab, WIL2-S cells) [8] of 2.73 ng/mL and an EC50 [9] of 142 nM.

“rituximab IgG1 with Fc variant DF228 (antibody)” showed an ADCC EC50 (ADCC Reporter Bioassay, rituximab Fab, WIL2-S cells) [8] of 2.66 ng/mL and an EC50 [9] of 154 nM.

With “rituximab IgG1 with Fc variant LS (antibody)” the EC50 [9] was 192 nM.

Substance “rituximab IgG1 with Fc variant YTE (antibody)” has an ADCC EC50 (ADCC Reporter Bioassay, rituximab Fab, WIL2-S cells) [8] of 15 ng/mL and an EC50 [9] of 1010 nM.

“rituximab IgG1 with wild type Fc (antibody)” showed an EC50 [9] of 538 nM.
